*1 amine or outer side, *2 acyl side, *3 side chain or, on linkers, in order; H or OH if unused. Bridges are numbered along the chain shown (N, C = ends). [ ]: non-standard residue; d: D form. Pqa = N-piperazin-1-yl-4(3H)-quinazolinone-3-acetic acid, O=C(Cn1cnc2ccc(N3CCN([*:1])CC3)cc2c1=O)[*:2]; Cms = N-(5-O-carboxymethyl)-serotonin, O=C(COc1ccc2[nH]cc(CCN[*:1])c2c1)[*:2]; Phe(3,4,5-F3) = N[C@@H](Cc1cc(F)c(F)c(F)c1)C(=O)O; 4Pal = N[C@@H](Cc1ccncc1)C(=O)O; 4‑MeOApc = not defined here; Nle = CCCC[C@H](N)C(=O)O
B1: H-Ile-Lys-Pqa-Arg-His-Tyr-Leu-Asn-Leu-Val-Thr-Arg-Gln-(D)Arg-Tyr-NH2 (peptide)
peptide: IKRHYLNLVTRQRY
modifications: (D)Arg at PYY position 35 (residue 11 of the second part); Pqa moiety between the two parts; C-terminal amide
B2: Ac-Ile-Nle-Pqa-Arg-(4-Pal)-Tyr-Leu-Asn-Leu-Val-Thr-Arg-Gln-Arg-Tyr-NH2 (peptide)
peptide: Ac-I[Nle][Pqa]R[4Pal]YLNLVTRQRY-NH2
SMILES: CCCC[C@H](NC(=O)[C@@H](NC(C)=O)[C@@H](C)CC)C(=O)N1CCN(c2ccc3ncn(CC(=O)N[C@@H](CCCNC(=N)N)C(=O)N[C@@H](Cc4ccncc4)C(=O)N[C@@H](Cc4ccc(O)cc4)C(=O)N[C@@H](CC(C)C)C(=O)N[C@@H](CC(N)=O)C(=O)N[C@@H](CC(C)C)C(=O)N[C@H](C(=O)N[C@H](C(=O)N[C@@H](CCCNC(=N)N)C(=O)N[C@@H](CCC(N)=O)C(=O)N[C@@H](CCCNC(=N)N)C(=O)N[C@@H](Cc4ccc(O)cc4)C(N)=O)[C@@H](C)O)C(C)C)c(=O)c3c2)CC1
B3: Cyclo Lys28-Aspu32 Ac-Ile-Nle-Cms-Arg-His-Tyr-Lys-Asn-Leu-Val-Asp-Arg-Gln-Arg-Tyr-NH2 (peptide)
peptide: Ac-I[Nle][Cms]RHYKNLVDRQRY-NH2
modifications: lactam 7-11
SMILES: CCCC[C@H](NC(=O)[C@@H](NC(C)=O)[C@@H](C)CC)C(=O)NCCc1c[nH]c2ccc(OCC(=O)N[C@@H](CCCNC(=N)N)C(=O)N[C@@H](Cc3c[nH]cn3)C(=O)N[C@@H](Cc3ccc(O)cc3)C(=O)N[C@H]3CCCCNC(=O)C[C@@H](C(=O)N[C@@H](CCCNC(=N)N)C(=O)N[C@@H](CCC(N)=O)C(=O)N[C@@H](CCCNC(=N)N)C(=O)N[C@@H](Cc4ccc(O)cc4)C(N)=O)NC(=O)[C@H](C(C)C)NC(=O)[C@H](CC(C)C)NC(=O)[C@H](CC(N)=O)NC3=O)cc12
B4: H-Ile-Lys-Pqa-Arg-His-Tyr-Leu-Asn-(D)Leu-Val-Thr-Arg-Gln-Arg-Tyr-NH2 (peptide)
peptide: IKRHYLNLVTRQRY
modifications: (D)Leu at PYY position 30 (residue 6 of the second part); Pqa moiety between the two parts; C-terminal amide
B5: Ac-Ile-Nle-Pqa-(3,4,5 Trifluoro Phe)-His-Tyr-Leu-Asn-Leu-Val-Thr-Arg-Gln-Arg-Tyr-NH2 (peptide)
peptide: Ac-I[Nle][Pqa][Phe(3,4,5-F3)]HYLNLVTRQRY-NH2
SMILES: CCCC[C@H](NC(=O)[C@@H](NC(C)=O)[C@@H](C)CC)C(=O)N1CCN(c2ccc3ncn(CC(=O)N[C@@H](Cc4cc(F)c(F)c(F)c4)C(=O)N[C@@H](Cc4c[nH]cn4)C(=O)N[C@@H](Cc4ccc(O)cc4)C(=O)N[C@@H](CC(C)C)C(=O)N[C@@H](CC(N)=O)C(=O)N[C@@H](CC(C)C)C(=O)N[C@H](C(=O)N[C@H](C(=O)N[C@@H](CCCNC(=N)N)C(=O)N[C@@H](CCC(N)=O)C(=O)N[C@@H](CCCNC(=N)N)C(=O)N[C@@H](Cc4ccc(O)cc4)C(N)=O)[C@@H](C)O)C(C)C)c(=O)c3c2)CC1
B6: H-Ile-Lys-Pqa-Arg-His-Tyr-Leu-Ala-Leu-Val-Thr-Arg-Gln-Arg-Tyr-NH2 (peptide)
peptide: H-IK[Pqa]RHYLALVTRQRY-NH2
SMILES: CC[C@H](C)[C@H](N)C(=O)N[C@@H](CCCCN)C(=O)N1CCN(c2ccc3ncn(CC(=O)N[C@@H](CCCNC(=N)N)C(=O)N[C@@H](Cc4c[nH]cn4)C(=O)N[C@@H](Cc4ccc(O)cc4)C(=O)N[C@@H](CC(C)C)C(=O)N[C@@H](C)C(=O)N[C@@H](CC(C)C)C(=O)N[C@H](C(=O)N[C@H](C(=O)N[C@@H](CCCNC(=N)N)C(=O)N[C@@H](CCC(N)=O)C(=O)N[C@@H](CCCNC(=N)N)C(=O)N[C@@H](Cc4ccc(O)cc4)C(N)=O)[C@@H](C)O)C(C)C)c(=O)c3c2)CC1
B7: H-Ile-Lys-Pqa-Arg-His-Tyr-Leu-Asn-Leu-Val-Ala-Arg-Gln-Arg-Tyr-NH2 (peptide)
peptide: H-IK[Pqa]RHYLNLVARQRY-NH2
SMILES: CC[C@H](C)[C@H](N)C(=O)N[C@@H](CCCCN)C(=O)N1CCN(c2ccc3ncn(CC(=O)N[C@@H](CCCNC(=N)N)C(=O)N[C@@H](Cc4c[nH]cn4)C(=O)N[C@@H](Cc4ccc(O)cc4)C(=O)N[C@@H](CC(C)C)C(=O)N[C@@H](CC(N)=O)C(=O)N[C@@H](CC(C)C)C(=O)N[C@H](C(=O)N[C@@H](C)C(=O)N[C@@H](CCCNC(=N)N)C(=O)N[C@@H](CCC(N)=O)C(=O)N[C@@H](CCCNC(=N)N)C(=O)N[C@@H](Cc4ccc(O)cc4)C(N)=O)C(C)C)c(=O)c3c2)CC1

What follows are binders tested against Y4R (assay: cell-based or functional assay).

Binder	Y4R EC50(nM) FLIPR [nM]
Ac-I[Nle][Pqa]R[4‑MeOApc]YLNLVTRQRY-NH2 (reading uncertain) [Ac-Ile-Nle-Pqa-Arg-(4-MeOApc)-Tyr-Leu-Asn-Leu-Val-Thr-Arg-Gln-Arg-Tyr-NH2]	> 5000
B1	> 5000
B2	> 5000
B3	> 5000
B4	> 5000
IARHYLNLVTRQRY (N-terminal acetyl; Pqa moiety between the two parts; C-terminal amide) [Ac-Ile-Ala-Pqa-Arg-His-Tyr-Leu-Asn-Leu-Val-Thr-Arg-Gln-Arg-Tyr-NH2]	3020
B5	> 5000
IKRHYLNAVTRQRY (Pqa moiety between the two parts; C-terminal amide) [H-Ile-Lys-Pqa-Arg-His-Tyr-Leu-Asn-Ala-Val-Thr-Arg-Gln-Arg-Tyr-NH2]	> 5000
B6	> 5000
B7	> 5000
AKRHYLNLVTRQRY (Pqa moiety between the two parts; C-terminal amide) [H-Ala-Lys-Pqa-Arg-His-Tyr-Leu-Asn-Leu-Val-Thr-Arg-Gln-Arg-Tyr-NH2]	> 5000

What follows are binders tested against T1, human NPY2 receptor (human, UniProt P49146 1-381) (assay: cell-based or functional assay).
T1 sequence (looked up): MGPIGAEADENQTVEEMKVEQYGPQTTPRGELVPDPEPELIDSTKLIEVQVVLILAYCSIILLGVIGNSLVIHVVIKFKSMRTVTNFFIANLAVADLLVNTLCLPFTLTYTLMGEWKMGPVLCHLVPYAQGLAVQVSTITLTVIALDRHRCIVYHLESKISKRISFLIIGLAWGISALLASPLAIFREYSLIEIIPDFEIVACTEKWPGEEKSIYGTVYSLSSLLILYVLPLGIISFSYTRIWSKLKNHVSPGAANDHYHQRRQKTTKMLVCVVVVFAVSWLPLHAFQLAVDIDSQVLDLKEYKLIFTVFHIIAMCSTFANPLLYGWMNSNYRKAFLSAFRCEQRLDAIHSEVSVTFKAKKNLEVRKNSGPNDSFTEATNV

Binder	Y2R EC50(nM) FLIPR [nM]	Y2R IC50(nM) cAMP [nM]
B3	146	32.2

The binders below were run against Y1R (assay: cell-based or functional assay).
Chain of Y1R (P25929 whole entry): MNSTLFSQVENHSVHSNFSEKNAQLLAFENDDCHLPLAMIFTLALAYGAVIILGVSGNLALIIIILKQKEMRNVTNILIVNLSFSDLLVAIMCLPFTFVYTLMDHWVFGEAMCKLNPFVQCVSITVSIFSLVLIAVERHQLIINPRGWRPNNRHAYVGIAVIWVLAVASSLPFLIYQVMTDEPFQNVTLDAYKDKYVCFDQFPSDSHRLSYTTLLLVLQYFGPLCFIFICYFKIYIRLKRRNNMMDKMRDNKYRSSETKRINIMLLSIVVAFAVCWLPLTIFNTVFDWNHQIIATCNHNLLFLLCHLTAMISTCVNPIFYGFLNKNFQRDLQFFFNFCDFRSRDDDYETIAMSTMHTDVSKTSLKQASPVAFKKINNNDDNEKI

Binder	Y1R EC50(nM) FLIPR [nM]
Ac-I[Nle][Pqa]R[4‑MeOApc]YLNLVTRQRY-NH2 (reading uncertain) [Ac-Ile-Nle-Pqa-Arg-(4-MeOApc)-Tyr-Leu-Asn-Leu-Val-Thr-Arg-Gln-Arg-Tyr-NH2]	> 5000
B1	> 5000
B2	> 5000
B3	> 5000
B4	> 5000
IARHYLNLVTRQRY (N-terminal acetyl; Pqa moiety between the two parts; C-terminal amide) [Ac-Ile-Ala-Pqa-Arg-His-Tyr-Leu-Asn-Leu-Val-Thr-Arg-Gln-Arg-Tyr-NH2]	> 5000
B5	> 5000
IKRHYLNAVTRQRY (Pqa moiety between the two parts; C-terminal amide) [H-Ile-Lys-Pqa-Arg-His-Tyr-Leu-Asn-Ala-Val-Thr-Arg-Gln-Arg-Tyr-NH2]	> 5000
B6	> 5000
B7	> 5000
AKRHYLNLVTRQRY (Pqa moiety between the two parts; C-terminal amide) [H-Ala-Lys-Pqa-Arg-His-Tyr-Leu-Asn-Leu-Val-Thr-Arg-Gln-Arg-Tyr-NH2]	> 5000

Reference: patent US7410949 (Hoffmann-La Roche, dated 2008)
